Consider 19 sequences from the DeepSol protein solubility set.

The data set can be described thus: soluble on expression in E. coli; label from the status in PepcDB or PDB records.
On to “MGSDKIHHHHHHMKQILFMDTTLRDGEQSPGVNLNEQEKLQIARQLERLGIHVMEAGFAAASEGDFQSVKRIANTIQNATVMSLARAKESDIRRAYEAVKGAVSPRLHVFLATSDIHMKYKLCMSKEDVLDSIHRSVTLGKSLFPTVQFSAEDATRTARDFLAEAVEVAIRAGANVINIPDTVGYTNPEEYYSLFKYLQESVPSYEKAIFSCHCHDDLGMAVANSLAAVEGGALQVEGTINGIGERAGNAALEEVAVALHIRKDFYQAEPSMTLKEIKATSTLVSRLTGMVVPKNKAIVGANAFAHESGIHQDGVLKEVTTYEIIEPELVGESQNLFVLGKHSGRHAFTEKMKELGYEFTTEERDAVFEAFKKLADRKKEITEEDLRALMLGEAAFAAQQYNITQLQVHFVSNSTQCATVVLKDEEGNVFEDAATGSGSIEAIYNAIQRILGLECELADYRIQSITQGQDALAHVHVELKEGTHQVSGFGVAQDVLEASARAYVHAAGKLKSFIQLVK”, for which the “soluble on expression in E. coli” value is recorded as “not soluble”.

Take “SEEVEAEEPQEFSHRQRLKAAVHYTVGCLCQEVTLNKQVNFSKQTIAAISEVTFRQCENFAKDLEMFARWVEKLAV”: the “soluble on expression in E. coli” value is recorded as “soluble”.

As to “MSSKDKKPSKPSSSRGGIRTLSDLNRRSGPDSDSDSDGPQEYYTGGEKSGMLVQDPSKKDDVDEIFNQARQLGAVEGPLEPPPSSRSFTGTGRLLSGENVPTGNQQPEPVVHNIVFWSNGFTIDDGPLRKLDDPENASFLEVNDFHSIRKSECPKELEPADRRAPVHVNLMRKEEKCPERQKRRVSFQGVGRTLGGSNEGSGSSSPVAPDSAPIPIQTEPAPSQSLVIDETVPTTSIQLRLADGTRLVAKFNHHHTVNDIRGFIDSSRPGASLNYQLQTMGFPPKPLTDLTQTIEEAGLANSVVLQKF”, the “soluble on expression in E. coli” value is listed as “soluble”.

In the case of “MRSLPIFPDLRAFLDWCARKGDLSRIAEPVSLRHETTAVASKILRGGGPVLRFESLRDTSATMPLVANLFGTRERVAAGLGLGLEQIPELGAFLAALRAPAPVAGMRDALSRWPQLQAALNTRAKIVRSAEAQEVVHEGAAVDLGMIPVPTCWPGDAGPLVTWPVVLTRPHGTSAEETLHYNAGVYRAQVIGRDRLIMRWLAHRGGAGHCRSWMRAGEPMPVALALGCDPALLLAAALPLPEQVSELTFSGVLRGARTPLVAGRTVPLMVPATAEIVVEGWVHPGDMAPEGPFGDHTGYYNSVEDFPVLRVSAITHRKDPLYLTTHTGRPPDEPSVIGEVFNDLAMPVFRQQIPEVKDLYLPPAACSYRIAIVSIDKRYPGQARRVMMALWGMLAQFSYTKMVIVVDEDINPRDWDDVAWAMATRMDPSRDVVLLEKTPMDYLDFASPEPGLAGKIGIDATNKIGPETHREWGEVMTQSPEAEAFADRLIAKLRIGALEHHHHHH”, the “soluble on expression in E. coli” value is reported as “not soluble”.

For the sequence “MGSDKIHHHHHHMEAVKTGIEGFDDIFGGFYRGQIILIAGNPGSGKTTFCAKFLYEGARRFGENGLYISIGESKEEFYEYMKKLGMDFEKLEKTGSFKYVEMLAPTSEDALMQLSRELTKNALELKATRIVIDSISPILSMNPETARAILHNALKTISRELKSVVLMTEEMPIGETRIGQGIEEFVVDGVIVLRLEVPEAGAPVRTMSVLKLRGKPLDRAVYNFEIGPPSGVRVLMHGIEELESNIDFNNKIATGIDGFDELLGGGIIRGTATAFVGPSGGGKTVLMLSAAANVAINGENVTYISFEEPRQQIEETLKFLGYGEVEGLEILSLNPRMISLRALYDILSKTVLDHRTMLFIDGLNAIRREFGEAFHRVVRDVVFQMKKNGITVVISLIGGTIKETLLSTIVDNVVELRVVEKDGELRREIAVRKARMSRASNEVKRLVFDGKPAVR”, the “soluble on expression in E. coli” value was “not soluble”.

On to “MLTIGGKSFQSRLLLGTGKYPSFDIQKEAVAVSESDILTFAVRRMNIFEASQPNFLEQLDLSKYTLLPNTAGASTAEEAVRIARLAKASGLCDMIKVEVIGCSRSLLPDPVETLKASEQLLEEGFIVLPYTSDDVVLARKLEELGVHAIMPGASPIGSGQGILNPLNLSFIIEQAKVPVIVDAGIGSPKDAAYAMELGADGVLLNTAVSGADDPVKMARAMKLAVEAGRLSYEAGRIPLKQYGTASSPGEGLP”, for which the “soluble on expression in E. coli” value is given as “soluble”.

As for “MGSDKIHHHHHHVEGDCMGKGRFILMLHAHLPFINHPDFPSFMEERWLFEAITETYIPLLQGFRRLKRDGVNFKVTMSITPPLMEMFANKDLQKKYLNYLSSSIELAGNEISRTVSEHPAANRLATHYLRELEEIRAVYNECNGDLVGEFAQLQETGELEIVTCNATHGFLPLMTNFPEAINAQIEIGVDSYKKHTGREPRGIWLAECGYVPGFDSYLREHGLSFFFVDSHSLWYGDPAPRYGVYRPVVTPENVFAFARDPESSQQVWSAEVGYPGDARYREFYRDVGFDREEDYIRPYIDPSGERCNTGIKYYKITGKDVSLNEKGYYDIEDARRATVEHAKDFANRKREQIRRLSSQFDGEEPVIVAPFDAELFGHWWYEGPLFIEELFRELNGDITVVPSTPPEVIKSMEQAQVVTP”, the “soluble on expression in E. coli” value is listed as “not soluble”.

For the sequence “MPEVIFNGPAGRLEGRYQPSKEKSAPIAIILHPHPQFGGTMNNQIVYQLFYLFQKRGFTTLRFNFRSIGRSQGEFDHGAGELSDAASALDWVQSLHPDSKSCWVAGYSFGAWIGMQLLMRRPEIEGFMSIAPQPNTYDFSFLAPCPSSGLIINGDADKVAPEKDVNGLVEKLKTQKGILITHRTLPGANHFFNGKVDELMGECEDYLDRRLNGELVPEPAAKRIR”, the “soluble on expression in E. coli” value is “soluble”.

As for “MGHHHHHHSHMTWKGGGGWMAAVTQGPGITWGSLLPSAVRQGEQKCKNTDVSIFLNWGVEGCLLTASKELTVEGPQCIPPLPESLSPLGPPGSQSSEETDPSCFNSCCCFSLWAGPGRGRAEQAPGGLQSQLDLAVSPAGSPADTGEVG”, the “soluble on expression in E. coli” value is reported as “not soluble”.

Consider “MSLGDSETIRILVSTDNHVGYNERDPIRGDDSWKSFHEVMCLAKQHDVDMVLLAGDLFHENKPSRKSMYQVMRSIRMNCLGDKPCELQLLSDASENFQGAFNHVNYEDLDINVGIPIFSIHGNHDDPSGEGHLAALDILQVSGLLNYYGRTPESDNIQLKPVLLQKGRTKLALYGMSNVRDERLFRTFRDGKVKFFRPSVQKEDWYNLICVHQNHHAYTETGYLPENFLPEFLDLVIWGHEHECLINPREGHHHHHH”, for which the “soluble on expression in E. coli” value was “soluble”.

Consider “MSLKILYISQEIFPYLPETDISVVSRKLPQTIQERGNEVRIFMPRYGIINERRNQLHEVIRLSGINMIINDNDHPLIIKVASIQSARMQVYFIDNDDFFKRKTMYDIKPKQENDNDERAIFFVRGALEAIKKLRWIPDVIHCHGWFTALAALYLKKMYADDPCLQKAKVVYSVYDDAGQGVIPETLFGKLGFDKITPDDLSVMEQSSDYLALNRLAIRYADGVIQGSETIAPELTDYISSLEGKAFLPYQGKEDYEEAFDNFYSDLLTANEGHHHHHH”, for which the “soluble on expression in E. coli” value is “soluble”.

For “MIKRILKIWFIIGMYELSKYLTNELIIYLQSEDDIDTAPKDFAILDDQIDLNRSFRRQIENDIAKAFEDAFNSSEKEDNLEHHHHHH”, the “soluble on expression in E. coli” value is reported as “not soluble”.

With “GMEKLSAIKKPDINVADAWEQYWNKTLVNSTPVLWDANVERAVVVDLPRFELLFNPELPLIDFACGNGTQTKFLSQFFPRVIGLDVSKSALEIAAKENTAANISYRLLDGLVPEQAAQIHSEIGDANIYMRTGFHHIPVEKRELLGQSLRILLGKQGAMYLIELGTGCIDFFNSLLEKYGQLPYELLLVMEHGIRPGIFTAEDIELYFPDFEILSQGEGLFQSIHKLPDGNYATPPAFWAVIKHR”, the “soluble on expression in E. coli” value is recorded as “soluble”.

Take “SLTTQRLGLIMNGVTGRMGLNQHLIRSIVAIRDQGGVRLKNGDRIMPDPILVGRSAEKVEALAKRFNIARWTTDLDAALADKNDTMFFDAATTQARPGLLTQAINAGKHVYCEKPIATNFEEALEVVKLANSKGVKHGTVQDKLFLPGLKKIAFLRDSGFFGRILSVRGEFGYWVFEGGWQEAQRPSWNYRDEDGGGIILDMVCHWRYVLDNLFGNVQSVVCIGNTDIPERFDEQGKKYKATADDSAYATFQLEGGVIAHINMSWVTRVYRDDLVTFQVDGTHGSAVAGLSDCMIQARQATPRPVWNPDEKRLHDFYGDWQKLPDNVSYDNGFKEQWEMFIRHVYEDAPYKFTLLEGAKGVQLAECALKSWKERRWIDVAPIK”: the “soluble on expression in E. coli” value is recorded as “soluble”.

For the sequence “MDQTVLDSAFNSPVDSGIAGTTTGSGSTTHFGVGTNFKVSVRSSSRSTDGTDSTDGANSDNVTGSTGSTPAHHSITNLNMALSQHSIDSATAASSTNPFPHFNQADLLNFHQNSLLPHHMFSQFGRYPQFEQKPDVGVLQQQMQMREAKPYKCTQCVKAFANSSYLSQHMRIHLGIKPFGPCNYCGKKFTQLSHLQQHIRTHTGEKPYKCKFTGCDKAFSQLSNLQSHSRCHQTDKPFKCNSCYKCFTDEQSLLDHIPKHKESKHLKIHICPFCGKSYTQQTYLQKHMTKHADRSKASNFGNDVVPADPFDPSLLSWNPMQGMGDNAHDSSSFNISSLTDQFAANTMIGSQSTNYNPAFQNSAFSQLFNIRNNRYLSEYPTSTKNGERAPGFNMITPLENIQRYNGSSSSATAVVTATGSAVVSSTPSSTSSSSAGSSSSQGGVFNPQSLINNMKNHSY”, the “soluble on expression in E. coli” value is “not soluble”.

As to “MGSDKIHHHHHHMRMDHQLAERWIAPYSHVLDLGCGNGELLAHLQQNRGVTGYGLEIDEDKINEAIANGLSIVEQDLNDGLARFADNSFDTVVMARALQAVKSPDVLLLDMLRVAREAVITFPNFAHWQNRIHLGLKGIMPVSEALPYEWYNTPNIHLCTFKDFEKLCAQHDIHIINRFAVSDSEKGHSSLMTALIRRAPNLLADVAIYRVSKQKPE”, the “soluble on expression in E. coli” value was “not soluble”.

Turning to “MAAHELKEALETLKETGVRITPQRHAILEYLVNSMAHPTADDIYKALEGKFPNMSVATVYNNLRVFRESGLVKELTYGDASSRFDFVTSDHYHAICENCGKIVDFHYPGLDEVEQLAAHVTGFKVSHHRLEIYGVCQECSKKENH”, the “soluble on expression in E. coli” value is reported as “soluble”.

As for “MTKVTHLPADDRSCGWYHLSPPRRPKPAHYGRSAARWVVVGAGFTGLAAARQLALHFPDEEIVLVEAQEVGFGTAGRNAGFAIDLPHDIGADDYIGDIATARIGLKLNLAGQSLLREQVQRHAIDCQMKACGKYQAAVEARGVAVLDAYRRGLDRLGQAYEVIEADDLPGNIGTAFYRKALFTPGTLLVQPSALVKGLADSLPGNVSLYEHTPITAVEYGDRTLLSHPHGSILADRLVLANNAFGMSFGFLQGRMLPIFTYASLTRPLDAEEQARLGGRPYWGLIPANPYGTTVRRTPDNRLLIRNSFSFNPDGRSAGKYLERFAVRHRASFRQRFPMLPEVGFDYTWGGSLALSRNHMGHFGELAPNVYGALCCNGLGVTRGTVTGKLLADWLAGERNELIDFLLRAPGPSGNPPEPLLSLGVNLNLRWGQYRAGRESLEHHHHHH”, the “soluble on expression in E. coli” value was “not soluble”.

For the sequence “MELQEVLRMNGGEGDTSYAKNSAYNQLVLAKVKPVLEQCVRELLRANLPNINKCIKVADLGCASGPNTLLTVRDIVQSIDKVGQEKKNELERPTIQIFLNDLFPNDFNSVFKLLPSFYRKLEKENGRKIGSCLIGAMPGSFYSRLFPEESMHFLHSCYCLQWLSQVPSGLVTELGIGTNKGSIYSSKASRLPVQKAYLDQFTKDFTTFLRIHSEELFSHGRMLLTCICKGVELDARNAIDLLEMAINDLVVEGHLEEEKLDSFNLPVYIPSAEEVKCIVEEEGSFEILYLETFKVLYDAGFSIDDEHIKAEYVASSVRAVYEPILASHFGEAIIPDIFHRFAKHAAKVLPLGKGFYNNLIISLAKKPEKSDM”, the “soluble on expression in E. coli” value is listed as “soluble”.
